Results on one substance are retold here after paper PMC9692336.

In assay [1] the target is platelet glycoprotein receptor Ib (UniProt P07359).
The target is the same in assay [2]. This is another data set of the same source.

“von Willebrand factor in plasma (from UniProt P04275 764-2813) (natural protein)” showed a VWF:RCo activity (ristocetin co-factor assay, aggregation of fixed platelets) in factor VIII-deficient plasmas after addition of polyP65 (2.5 and 7.1 µM) in assay [1] of 2 fold. Besides, the VWF:RCo activity in factor VIII-deficient plasmas after addition of purified recombinant factor VIII in assay [2] amounted to 4 fold.
